# From publication PMC2798062
# Assays:
# CCC(C)(C)C(=O)SCCC(=O)OC = test: purified protein; type: biochemical, Aspergillus terreus; conditions: 2 mM MJA fixed; 10% DMSO; table header prints mM^-1, text b12 prints mM; 25.0 °C
# [1] = system: C[C@H]1C=C2C=C[C@H](C)[C@H](CC[C@@H](O)C[C@@H](O)CC(=O)O)[C@H]2[C@@H](O)C1; test: purified protein; type: biochemical, Aspergillus terreus; conditions: 2 mM DMB-SMMP fixed, 10% DMSO, 25°C
substance,measurement,setting,value
LovD G0 (Aspergillus terreus; C40A/C60N),Km,CCC(C)(C)C(=O)SCCC(=O)OC,0.67 ± 0.12 mM
same,kcat,CCC(C)(C)C(=O)SCCC(=O)OC,0.011 ± 0.0005 s⁻¹
same,Km,[1],770 ± 170 µM
same,kcat,[1],0.011 ± 0.0005 s⁻¹
LovD G0 (Aspergillus terreus; A190T/A86V/C40A/C60N/D12G/G275S/H161Y/K26E/V334F),Km,[1]; mutant G7,700 ± 40 µM
same,kcat,[1]; mutant G7,0.08 ± 0.001 s⁻¹
LovD G0 (Aspergillus terreus; A190T/A86V/C40A/C60N/D12G/G275S/H161Y/K26E),Km,[1]; mutant G5,740 ± 30 µM
same,kcat,[1]; mutant G5,0.0435 ± 0.0005 s⁻¹
LovD G0 (Aspergillus terreus; A86V/C40A/C60N),Km,[1]; mutant G1,740 ± 160 µM
same,kcat,[1]; mutant G1,0.0132 ± 0.0005 s⁻¹
LovD G0 (Aspergillus terreus; A190T/A86V/C40A/C60N/D12G/G275S/H161Y/K26E/L361M/V334D),Km,[1]; mutant G6,700 ± 70 µM
same,kcat,[1]; mutant G6,0.055 ± 0.001 s⁻¹
LovD G0 (Aspergillus terreus; A190T/A86V/C40A/C60N/D12G/G275S),Km,[1]; mutant G3,770 ± 110 µM
same,kcat,[1]; mutant G3,0.031 ± 0.0015 s⁻¹
